What is called stoichiometry N is a count of units in the complex or per binding partner.

Positions count from the first letter of the chain named. Names and notes keep the numbering of the source. Like-named read-outs stand apart in the source and are kept apart here.

Here are results for six proteins from article PMC11079477 (iScience, 2024).

Data set [1] deals with the molecule itself. As to the kind of experiment: reducing SDS-PAGE and immunoblot.
Data set [2] concerns the molecule itself. As to the kind of experiment: 4M urea SDS-PAGE.
Data set [3] deals with the molecule itself. As to the kind of experiment: non-reducing SDS-PAGE.
Data set [4] concerns the molecule itself.
Data set [5] concerns the molecule itself. As to the kind of experiment: reducing SDS-PAGE and immunoblot of a membrane preparation. Background: In western blotting, separated proteins are transferred to a membrane and probed.
Data set [6] deals with the molecule itself. As to the kind of experiment: non-reducing SDS-PAGE and Western blot.

B1: PfP2-HA of P. falciparum 3D7 P2-HA glmS transgenic parasites (natural protein, Plasmodium falciparum 3D7, UniProt O00806 1-112, looked up)
chain: MAMKYVAAYLMCVLGGNENPSTKEVKNVLGAVNADVEDEVLNNFIDSLKGKSCHELITDGLKKLQNIGGGVAAAPAGAAAVETAEAKKEDKKEEKKEEEEEEEDDLGFSLFG
For the protein B1, the “stoichiometry N” value in data set [1] worked out at 4.

B2: LAFS-induced denaturation-resistant rec. PfP2 tetramer (natural protein, Plasmodium falciparum 3D7, UniProt O00806 1-112, looked up)
chain: B1 chain
modifications: 11th methionine (Met11) oxidized; Met11 S-O-S Met11 linkages between chains as the paper proposes
For the protein B2, in data set [2], the “stoichiometry N” value worked out at 4.

B3: 6x His tag recombinant PfP2 (P. falciparum 60S stalk ribosomal protein P2) (natural protein, Plasmodium falciparum 3D7, UniProt O00806 1-112, looked up)
chain: B1 chain
Consider B3, for which the “stoichiometry N” value in data set [3] stood at 4.

B4: LAFS-induced alkylated rec. PfP2 tetramer (natural protein, Plasmodium falciparum 3D7, UniProt O00806 1-112, looked up)
chain: B1 chain
modifications: cysteines alkylated using iodoacetamide (IAA) after reduction with DTT
Turning to B4, the “stoichiometry N” value in data set [4] was 4.

B5: PfP2 of wild type P. falciparum 3D7 parasites (natural protein, UniProt O00806 1-112, looked up)
chain: B1 chain
modifications: 11th methionine (Met11) oxidized in the parasite membrane preparation (ESI MS/MS)
Take B5: the “stoichiometry N” value in data set [5] came out at 2; in data set [1], 4.

B6: PfP2C12A (Clone 1, C12A) (natural protein, Plasmodium falciparum 3D7, UniProt O00806 1-112, looked up)
chain: B1 chain with C12A
For the protein B6, in data set [6], the “stoichiometry N” value was 2.
